Assays:
[1] = target: BG505 SOSIP.664 gp140 trimer (HIV); assay: SPR
[2] = target: WT Malaysian banana lectin (Malay BanLec) (Musa acuminata ssp. malaccensis); assay: crystal structure; WT and F84T Malay BanLec each at 5 mg/mL in 10 mM HEPES pH 7.5, 150 mM NaCl; crystals grown at 20 °C from ammonium sulfate; dimers in the asymmetric unit
[3] = target: F84T Malay BanLec (Musa acuminata ssp. malaccensis); assay: as above

Row | Substance | Kd [1] [nM] | koff [1] [s⁻¹] | kon [1] [M⁻¹ s⁻¹] | stoichiometry N [2] | stoichiometry N [3]
1 | griffithsin (GRFT) (from UniProt P84801 1-121) (natural protein) | 0.137 | 0.00074 | 5.56e+06 | – | –
2 | WT Malaysian banana lectin (Malay BanLec) (natural protein) | 0.122 | 0.00014 | 1.33e+06 | 2 | –
3 | F84T Malay BanLec (natural protein) | 0.368 | 0.000266 | 720000 | – | 2

Source: paper PMC7804308
